# Assay results: patent publication US20240425589A1, “CYTOTOXICITY-INDUCING THERAPEUTIC AGENT FOR USE IN TREATMENT OF CANCER” (CHUGAI SEIYAKU KABUSHIKI KAISHA, priority 2021, published 2024)
# Positions count from the first letter of the chain named.
# B1: CS3348: anti-CLDN6/CD3 bispecific antibody, chains SEQ ID NOs 193, 195, 194, 192; used as control (protein)
# chain 1: QVQLVESGGGVVQPGGSLRLSCAASGFTFSSYTMSWVREAPGQGLEWMGTISSGGGRTYYPDSVKGRFTISRDNSKNTLYLQMNSLRDEDTAVYYCARGDYRYDGFAYWGEGTLVTVSSASTKGPSVFPLAPSSKSTSGGTAALGCLVEDYFPEPVTVSWNSGALTSGVHTFPAVLESSGLYSLSSVVTVPSSSLGTQTYICNVNHKPSNTKVDERVEPKSCDKTHTCPPCPAPEAAGGPSVFLFPPKPKDTLMISRTPEVTCVVVDVSHEDPEVKFNWYVDGVEVHNAKTKPREEQYASTYRVVSVLTVLHQDWLNGKEYKCKVSNKALPAPIEKTISKAKGQPREPQVYTLPPSREEMTKNQVSLTCLVKGFYPSDIAVEWESNGQPENNYKTTPPVLDSDGSFFLYSKLTVDKSRWQQGNVFSCSVMHEALHNHYTQESLSLSP
# chain 2: DIQMTQSPSSLSASVGDRVTITCRASYNIDSYLAWYQKKPGKAPELLIYYSTLLVDGVPDRFSGSRSGTDFTLTISSLQPEDFATYYCQHYYSIPYTFGQGTKVEIERTVAAPSVFIFPPSDKQLKSGTAKVVCLLNNFYPREAKVQWKVDNALQSGNSKESVTEQDSKDSTYSLSSTLTLSKADYEKHKVYACEVTHQGLSSPVTKSFNRGEC
# chain 3: QVQLVESGGGVVQPGGSLRLSCAASGFTFSNAWMHWVRKAPGKGLEWVAQIKDKSQNYATYVAESVKGRFTISRADSKNSIYLQMNSLKTEDTAVYYCRYVHYAAGYGVDIWGQGTTVTVSSASTKGPSVFPLAPSSKSTSGGTAALGCLVKDYFPEPVTVSWNSGALTSGVHTFPAVLKSSGLYSLSSVVTVPSSSLGTQTYICNVNHKPSNTKVDKRVEPKSCDKTHTCPPCPAPEAAGGPSVFLFPPKPKDTLMISRTPEVTCVVVDVSHEDPEVKFNWYVDGVEVHNAKTKPREEQYASTYRVVSVLTVLHQDWLNGKEYKCKVSNKALPAPIEKTISKAKGQPREPQVYTLPPSRKEMTKNQVSLTCLVKGFYPSDIAVEWESNGQPENNYKTTPPVLDSDGSFFLYSKLTVDKSRWQQGNVFSCSVMHEALHNHYTQKSLSLSP
# chain 4: DIVMTQSPLSLPVTPGEPASISCRSSQPLVHSNRNTYLHWYQEKPGQAPRLLIYKVSNRFSGVPDRFSGSGSGTDFTLKISRVEAEDVGVYYCGQGTQVPYTFGQGTKLEIKRTVAAPSVFIFPPSDEQLKSGTAEVVCLLNNFYPREAKVQWKVDNALQSGNSEESVTEQDSKDSTYSLSSTLELSKADYEKHKVYACEVTHQGLSSPVTKSFNRGEC
# B2: H2591L0581: affinity matured Dual-Fab variant, VH SEQ ID NO 101, VL SEQ ID NO 143 (antibody, V domains shown)
# VH: QVQLVESGGGLVQPGRSLRLSCAASGFKFSNVWFHWVRQAPGKGLEWVAQIKDYYNAYAGYYHPSVKGRFTISRDDSKNSIYLQMNSLKTEDTAVYYCHYVHYAAASTLLPAEGVDAWGQGTTVTVSS
# VL: DIVMTQSPLSLPVTPGEPASISCQPSQEVVHMNRNTYLHWYQQKPGQAPRLLIYKVSNRFPGVPDRFSGSGSGTDFTLKISRVEAEDVGVYYCAQGTSHPFTFGQGTKLEIK
# B3: H1550L0918: affinity matured Dual-Fab variant, VH SEQ ID NO 92, VL SEQ ID NO 144 (antibody, V domains shown)
# VH: B2 VH with F34M, Y54K, G60A, H63A, V101I, A105S, E113F
# VL: B2 VL with R34N, N35V, T36V
# B4: H2594L0581: affinity matured Dual-Fab variant, VH SEQ ID NO 102, VL SEQ ID NO 143 (antibody, V domains shown)
# VH: B2 VH with T108Q
# VL: B2 VL
# B5: CS2961: anti-CLDN6/CD3 bispecific antibody comprising CLDN6 binding Fv CLDN6AE25EK and a CD3 binding Fv (SEQ ID NOs 184, 185) (antibody, V domains shown)
# VH: QVQLVESGGGVVQPGGSLRLSCAASGFTFSNAWMHWVRKAPGKGLEWVAQIKDKSQNYATYVAESVKGRFTISRADSKNSIYLQMNSLKTEDTAVYYCRYVHYAAGYGVDIWGQGTTVTVSS
# VL: DIVMTQSPLSLPVTPGEPASISCRSSQPLVHSNRNTYLHWYQEKPGQAPRLLIYKVSNRFSGVPDRFSGSGSGTDFTLKISRVEAEDVGVYYCGQGTQVPYTFGQGTKLEIK
# modifications: CLDN6 binding Fv CLDN6AE25EK lacks SEQ ID
# B6: H183L072: parental Dual-Fab (CD3/CD137), VH SEQ ID NO 90, VL SEQ ID NO 142 (antibody, V domains shown)
# VH: B2 VH with K28T, V32A, F34M, Y54K, Y55G, G60A, H63A, A105S, L109V, E113F
# VL: B2 VL with P25A, V29L, H99V
# What was measured:
# [1] = Single dose toxicology study; format: in vivo, cynomolgus monkey; conditions: cynomolgus monkey, in vivo, iv
# Description: Potential toxicity of PPU4135 antibody (anti-CLDN6/Dual-Fab tri-specific antibody) was evaluated in toxicity study using cynomolgus monkeys compared with CS3348 antibody (anti-CLDN6/CD3 bispecific antibody). Because both PPU4135 and CS3348 antibodies cross-reacted with their antigens of cynomolgus monkey, cynomolgus monkey was selected as the animal species for evaluations in the in vivo toxicology studies. Since toxicological findings seemed to be more sensitive in male than female animals in the toxicity study with CS3348 (FIG. 14), 2 males were used for evaluation of the PPU4135-mediated toxicity. In these studies, dose levels were set at 100 (for CS3348) or 90 (for PPU4135) micro g/kg, which were approximately 2.57-fold efficacious concentration producing 80% of the maximal response.
# [2] = target: T1, recombinant human CD3 (human CD3eg linker) (Homo sapiens, UniProt P07766+P09693); experiment: Biacore T200 SPR affinity of Dual-Fab antibodies to human CD3; format: binding; conditions: 25 degrees C, pH 7.4
# T1 construct: made in house; host or cells: FreeStyle293F
# Description: The gamma and epsilon subunits of the human CD3 complex (human CD3eg linker) were linked by a 29-mer linker and a Flag-tag was fused to the C-terminal end of the gamma subunit (SEQ ID NO: 169). This construct was expressed transiently using FreeStyle293F cell line (Thermo Fisher). Conditioned media expressing human CD3eg linker was concentrated using a column packed with Q HP resins (GE healthcare) and then applied to FLAG-tag affinity chromatography. Fractions containing human CD3eg linker were collected and subsequently subjected to a Superdex 200 gel filtration column (GE healthcare) equilibrated with 1×D-PBS. Fractions containing human CD3eg linker were then pooled and stored at −80 degrees C.
# (§1) Binding affinity of Dual-Fab antibodies (Dual-Ig) to human CD3 were assessed at 25 degrees C. using Biacore T200 instrument (GE Healthcare). Anti-human Fc (GE Healthcare) was immobilized onto all flow cells of a CM4 sensor chip using amine coupling kit (GE Healthcare). Antibodies were captured onto the anti-Fc sensor surfaces, then recombinant human CD3 or CD137 was injected over the flow cell. All antibodies and analytes were prepared in ACES pH 7.4 containing 20 mM ACES, 150 mM NaCl, 0.05% Tween 20, and 0.005% NaN3. Sensor surface was regenerated each cycle with 3M MgCl2. Binding affinity were determined by processing and fitting the data to 1:1 binding model using Biacore T200 Evaluation software, version 2.0 (GE Healthcare). CD137 binding affinity assay was conducted in same condition except assay temperature was set at 37 degrees C.
# recombinant human CD137 = target: T2, recombinant human CD137 (Homo sapiens, UniProt Q07011); experiment: Biacore T200 SPR affinity of Dual-Fab antibodies to human CD137; format: binding; conditions: 37 degrees C, pH 7.4
# T2 construct: made in house; host or cells: FreeStyle293F
# Description: Human CD137 extracellular domain (ECD) (SEQ ID NO: 179) with hexahistidine (His-tag) and biotin acceptor peptide (BAP) on its C-terminus was expressed transiently using FreeStyle293F cell line (Thermo Fisher). Conditioned media expressing human CD137 ECD was applied to a HisTrap HP column (GE healthcare) and eluted with buffer containing imidazole (Nacalai). Fractions containing human CD137 ECD were collected and subsequently subjected to a Superdex 200 gel filtration column (GE healthcare) equilibrated with 1×D-PBS. Fractions containing human CD137 ECD were then pooled and stored at −80 degrees C.
# as §1
# [3] = system: hCLDN6/BaF, hCLDN3/BaF, hCLDN4/BaF, and hCLDN9/BaF; experiment: FACS analysis of specificity against CLDN family; format: binding, human; conditions: 15 micro g/ml, compared with 6PHU3/TR01
# Description: Amino acid sequences are highly conserved among CLDN3, CLDN4, CLDN6 and CLDN9. Thus we examined CLDN6 binding specificity of CLDN6 binding Fv comprising 65HQ39E as VH and 54L0532Q38K as VL, by FACS analysis. hCLDN6/BaF, hCLDN3/BaF, hCLDN4/BaF, and hCLDN9/BaF were incubated with an anti-CLDN6/CD3 bispecific antibody (CS2961) comprising the CLDN6 binding Fv CLDN6AE25EK and a CD3 binding Fv (heavy chain variable region SEQ ID NO: 184, light chain variable region SEQ ID NO: 185) at 15 micro g/ml. Another anti-CLDN6/CD3 bispecific antibody (6PHU3/TR01) and an antibody without binding capability to CLDN6 (KLH/TR01) were used as a staining control. 6PHU3/TR01 and KLH/TR01 comprise the same CD3 binding Fv (heavy chain variable region SEQ ID No: 188, light chain variable region SEQ ID NO: 189). The CLDN6 binding Fv of 6PHU3/TR01 comprises a heavy chain variable region shown in SEQ ID NO: 190 and a light chain variable region shown in SEQ ID NO: 191. KLH/TR01 comprises a KLH binding Fv (heavy chain variable region SEQ ID NO: 186, light chain variable region SEQ ID NO: 187).
# Binding of each antibody was detected with Alexa Fluor 488-conjugated anti human IgG (Invitrogen). Dead cells were separated by eFlour 780 (Invitrogen) staining. […]
# T2 sequence (Q07011 with tags, fused parts or gaps): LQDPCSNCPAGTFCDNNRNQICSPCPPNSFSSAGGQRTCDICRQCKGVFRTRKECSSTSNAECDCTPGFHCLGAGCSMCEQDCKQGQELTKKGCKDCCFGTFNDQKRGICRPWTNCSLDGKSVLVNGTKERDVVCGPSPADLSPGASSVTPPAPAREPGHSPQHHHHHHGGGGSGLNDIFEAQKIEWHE
# T1 sequence (P07766+P09693 fused): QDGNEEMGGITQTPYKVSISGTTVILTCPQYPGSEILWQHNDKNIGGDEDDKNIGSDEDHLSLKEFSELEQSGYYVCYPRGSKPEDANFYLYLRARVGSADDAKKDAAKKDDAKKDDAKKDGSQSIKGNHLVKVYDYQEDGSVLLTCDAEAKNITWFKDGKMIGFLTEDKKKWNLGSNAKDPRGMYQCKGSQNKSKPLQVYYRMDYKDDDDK
molecule,measurement,setting,value
B1,"AST, ALT, GLDH, ALP, TBIL, GGT, TBA and CRP",[1],Increased
B2,CD3 Koff,[2],0.0535 s⁻¹
same,CD3 Kon,[2],102000 M⁻¹ s⁻¹
same,CD137 Koff,recombinant human CD137,0.000742 s⁻¹
same,CD137 Kon,recombinant human CD137,20400 M⁻¹ s⁻¹
B3,CD3 Koff,[2],0.00316 s⁻¹
same,CD3 Kon,[2],72000 M⁻¹ s⁻¹
same,CD137 Koff,recombinant human CD137,0.00579 s⁻¹
same,CD137 Kon,recombinant human CD137,10900 M⁻¹ s⁻¹
B4,CD3 Koff,[2],0.0584 s⁻¹
same,CD3 Kon,[2],98300 M⁻¹ s⁻¹
same,CD137 Koff,recombinant human CD137,0.00163 s⁻¹
same,CD137 Kon,recombinant human CD137,20900 M⁻¹ s⁻¹
B5,"specificity towards CLDN6 among CLDN3, CLDN4, CLDN6, CLDN9",[3],better specificity towards CLDN6
B6,CD3 Koff,[2],0.012 s⁻¹
same,CD3 Kon,[2],35400 M⁻¹ s⁻¹
same,CD137 Koff,recombinant human CD137,0.0196 s⁻¹
same,CD137 Kon,recombinant human CD137,3470 M⁻¹ s⁻¹
same,Kd,recombinant human CD137,5.66 µM
